Source: patent US20160264649A1

Tests used:
Assay in all cases: cell-based or functional assay
[1] = molecular target: HIV-1 MGRM-D-012 Env (HIV-1)
[2] = molecular target: HIV-1 APV_6 Env on pseudovirus (HIV-1)
[3] = molecular target: HIV-1 92UG024 Env (HIV-1)
[4] = molecular target: HIV-1 MGRM-C-005 Env on pseudovirus (HIV-1)
[5] = molecular target: HIV-1 MGRM-Chronic-B-024 Env on pseudovirus (HIV-1)
[6] = molecular target: HIV-1 92UG005 Env (HIV-1)
[7] = molecular target: HIV-1 MGRM-G-027 Env (HIV-1)
[8] = molecular target: HIV-1 MGRM-F1-021 Env (HIV-1)
[9] = molecular target: HIV-1 MGRM-G-028 Env (HIV-1)
[10] = molecular target: HIV-1 MGRM-G-024 Env (HIV-1)
[11] = molecular target: HIV-1 MGRM-Chronic-B-012 Env on pseudovirus (HIV-1)
[12] = molecular target: HIV-1 MGRM-D-024 Env (HIV-1)
[13] = molecular target: HIV-1 MGRM-F1-010 Env (HIV-1)
[14] = molecular target: HIV-1 MGRM-C-023 Env on pseudovirus (HIV-1)
[15] = molecular target: HIV-1 MGRM-AE-001 Env (HIV-1)
[16] = molecular target: HIV-1 MGRM-AG-009 Env (HIV-1)
[17] = molecular target: HIV-1 MGRM-G-004 Env (HIV-1)
[18] = molecular target: HIV-1 CMU02 Env (HIV-1)
[19] = molecular target: HIV-1 MGRM-G-017 Env (HIV-1)
[20] = molecular target: HIV-1 MGRM-C-013 Env on pseudovirus (HIV-1)
[21] = molecular target: HIV-1 JRFL Env on pseudovirus (HIV-1)
[22] = molecular target: HIV-1 MGRM-D-011 Env (HIV-1)
[23] = molecular target: HIV-1 MGRM-F1-020 Env (HIV-1)
[24] = molecular target: HIV-1 98CN009 Env on pseudovirus (HIV-1)
[25] = molecular target: HIV-1 MGRM-Chronic-B-011 Env on pseudovirus (HIV-1)
[26] = molecular target: HIV-1 JRCSF Env on pseudovirus (HIV-1) (UniProt P20871)
[27] = molecular target: HIV-1 MGRM-G-019 Env (HIV-1)
[28] = molecular target: HIV-1 MGRM-F1-008 Env (HIV-1)
[29] = molecular target: HIV-1 93IN905 Env on pseudovirus (HIV-1)
[30] = molecular target: HIV-1 93TH305 Env on pseudovirus (HIV-1)
[31] = molecular target: HIV-1 MGRM-F1-016 Env (HIV-1)
[32] = molecular target: HIV-1 MGRM-F1-022 Env (HIV-1)
[33] = molecular target: HIV-1 92UG001 Env (HIV-1)
[34] = molecular target: HIV-1 MGRM-F1-006 Env (HIV-1)
[35] = molecular target: HIV-1 93UG077 Env (HIV-1)
[36] = molecular target: HIV-1 IAVI-C22 Env (HIV-1)
[37] = molecular target: HIV-1 THR0.18 (Acute) Env on pseudovirus (HIV-1)
[38] = molecular target: HIV-1 SF162 Env on pseudovirus (HIV-1) (UniProt P19550)
[39] = molecular target: HIV-1 MGRM-AG-006 Env (HIV-1)
[40] = molecular target: HIV-1 MGRM-AG-012 Env (HIV-1)
[41] = molecular target: HIV-1 MGRM-G-006 Env (HIV-1)
[42] = molecular target: HIV-1 NL43 Env (HIV-1)
[43] = molecular target: HIV-1 MGRM-Chronic-B-003 Env on pseudovirus (HIV-1)
[44] = molecular target: HIV-1 93IN905 Env (HIV-1)
[45] = molecular target: HIV-1 MGRM-C-004 Env on pseudovirus (HIV-1)
[46] = molecular target: HIV-1 IAVI-C18 Env (HIV-1)
[47] = molecular target: HIV-1 MGRM-G-014 Env (HIV-1)
[48] = molecular target: HIV-1 92RW020 Env (HIV-1)
[49] = molecular target: HIV-1 MGRM-C-014 Env on pseudovirus (HIV-1)
[50] = molecular target: HIV-1 93MW959 Env on pseudovirus (HIV-1)

With b12 (antibody) the IC50 (µg/ml), pseudovirus neutralization [1] was 0.13 µg/mL, the IC50 [2] was over 50 µg/mL and the IC50 (µg/ml), pseudovirus neutralization [3] was 45.6 µg/mL. The neutralization IC50 [3] was 49.1 µg/mL, the neutralization IC90 [3] was over 50 µg/mL and the IC50 [4] was 2.66 µg/mL. The IC50 [5] was over 50 µg/mL, the IC50 (µg/ml), pseudovirus neutralization [6] was over 50 µg/mL and the neutralization IC50 [6] was over 50 µg/mL. It also gave a neutralization IC90 [6] of over 50 µg/mL, an IC50 (µg/ml), pseudovirus neutralization [7] of over 50 µg/mL and an IC50 (pseudovirus neutralization) [8] of over 50 µg/mL. The IC50 (µg/ml), pseudovirus neutralization [9] was over 50 µg/mL, the IC50 (µg/ml), pseudovirus neutralization [10] was 2.38 µg/mL and the IC50 [11] was over 50 µg/mL. For the same substance, the IC50 (µg/ml), pseudovirus neutralization [12] was 5.92 µg/mL, the IC50 (pseudovirus neutralization) [13] was over 50 µg/mL and the IC50 [14] was 13.9 µg/mL. For the same substance, the IC50 (µg/ml), pseudovirus neutralization [15] was 25.9 µg/mL, the IC50 (µg/ml), pseudovirus neutralization [16] was over 50 µg/mL and the IC50 (µg/ml), pseudovirus neutralization [17] was over 50 µg/mL. For the same substance, the IC50 (µg/ml), pseudovirus neutralization [18] was 29.3 µg/mL, the neutralization IC50 [18] was 4.25 µg/mL and the neutralization IC90 [18] was 34.2 µg/mL. The IC50 (µg/ml), pseudovirus neutralization [19] was over 50 µg/mL, the IC50 [20] was over 50 µg/mL and the IC50 [21] was 0.02 µg/mL. For the same substance, the IC50 (µg/ml), pseudovirus neutralization [22] was 7.75 µg/mL, the IC50 (pseudovirus neutralization) [23] was over 50 µg/mL and the IC50 [24] was 1.52 µg/mL. For the same substance, the IC50 [25] was 2.11 µg/mL, the IC50 [26] was 0.21 µg/mL and the IC50 (µg/ml), pseudovirus neutralization [27] was 3.77 µg/mL. The IC50 (pseudovirus neutralization) [28] was over 50 µg/mL, the IC50 [29] was 21.4 µg/mL and the IC50 [30] was 4.17 µg/mL. It also gave an IC50 (pseudovirus neutralization) [31] of over 50 µg/mL, an IC50 (pseudovirus neutralization) [32] of over 50 µg/mL and an IC50 (µg/ml), pseudovirus neutralization [33] of 1.01 µg/mL. It also gave an IC50 (pseudovirus neutralization) [34] of over 50 µg/mL, a neutralization IC50 [35] of 41.1 µg/mL and a neutralization IC90 [35] of over 50 µg/mL. It also gave a neutralization IC50 [36] of 3.6 µg/mL, a neutralization IC90 [36] of 29.6 µg/mL and an IC50 [37] of 3.62 µg/mL. For the same substance, the IC50 [38] was 0.02 µg/mL, the IC50 (µg/ml), pseudovirus neutralization [39] was over 50 µg/mL and the IC50 (µg/ml), pseudovirus neutralization [40] was 10.4 µg/mL. The IC50 (µg/ml), pseudovirus neutralization [41] was over 50 µg/mL, the neutralization IC50 [42] was 0.06 µg/mL and the neutralization IC90 [42] was 0.28 µg/mL. The IC50 [43] was over 50 µg/mL, the neutralization IC50 [44] was 34.1 µg/mL and the neutralization IC90 [44] was over 50 µg/mL. The IC50 [45] was 5.46 µg/mL, the neutralization IC50 [46] was over 50 µg/mL and the neutralization IC90 [46] was over 50 µg/mL. For the same substance, the IC50 (µg/ml), pseudovirus neutralization [47] was over 50 µg/mL, the neutralization IC50 [48] was over 50 µg/mL and the neutralization IC90 [48] was over 50 µg/mL. It also gave an IC50 [49] of over 50 µg/mL and an IC50 [50] of over 50 µg/mL.
